Assay results published in the nanobody polyreactivity screen of Harvey et al. (2022).

Test: yeast display, Sf9 membrane polyspecificity reagent, FACS + sequencing; frameworks hold sequencing errors
Summary of the method: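 Polyreactivity labels are assigned by the sorting gate from which each nanobody was recovered. The gates were low and high (top ~1%), set on anti-HA fluorescence for expression and streptavidin fluorescence for reagent binding. Before sorting, galactose-induced (36–48 hours) yeast display cells were stained for 1 hour at 4 °C with 10% biotinylated, detergent-solubilized Sf9 membrane reagent.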

Sequence	polyreactivity (PSR sort gate)
QVQLVESGGGLVQAGGSLRLSCAASGSTFGFYAMGWYRQAPGKERELVAAISGRGGSTYYADSVKGRFTISRDNAKNTVYLQMNSLKPEDTAVYYCNADWQDDLAGYDVDYWGQGTQVTVSS	low polyreactivity
QVQLVESGGGLVQAGGSLRLSCAASGSTFGFYAMGWYRQAPGKERELVAAITGSGGSTYYADSVKGRFTISRDNAKNTVYLQMNSLKPEDTAVYYCNRYGVRYYRYDYWGQGTQVTVSS	high polyreactivity
QVQLVESGGGLVQAGGSLRLSCAASGSTFGFYAMGWYRQAPGTERELVAVISSGDSPYYADSVKGRFTISRDNAKNTVYLKMNSRKPEDTAVYYCAKDALVIDGGGGYDYWGQGTQVTVSS	low polyreactivity
QVQLVESGGGLVQAGGSLRLSCAASGSTFGFYAMGWYTHAPGKERELVAGITRVGSTNYADSVKGRFTISRDNAKNTVYLQMNSLKPEVTAVYYCNRRYTPYTWPYGYWGQGTQVTVSS	high polyreactivity
QVQLVESGGGLVQAGGSLRLSCAASGSTFGGYALGWDRQAPGKDRELVAAISRSGGRTYYADSVKGRFTISRDNAQNTVYLQMNSLKPEATAVYDCYPYYIASTFDYWGHGTQVTVSS	high polyreactivity
QVQLVESGGGLVQAGGSLRLSCAASGSTFGGYAMGRYRQAPGKERELVAAISNGDRTNYADSVKGRFTISRDNAKNTVYLQKNSLKPEETAVYYCATRTLFRYPNYGNNLWGYDYWGQGTQVTVSS	low polyreactivity
QVQLVESGGGLVQAGGSLRLSCAASGSTFGGYAMGWSRQAPGKERELVARITRSGGRTYYADSVKGRFTISRDNAKNTVYLQMNSLKPEDTAVYYCNKQLLISRQIQYEYWGQGTQVTVSS	low polyreactivity
QVQLVESGGGLVQAGGSLRLSCAASGSTFGGYAMGWYRQAPGKERELVAAINSGGSTYYADSVKGRFTISRDNAKNTVYLQMNSLKPEDTSVYYCNADSQVLRDYISDYWGQGTQVTVSS	low polyreactivity
QVQLVESGGGLVQAGGSLRLSCAASGSTFGGYAMGWYRQAPGKERELVAAITWSGDTYYADSVKGRFTISRDYAKNTVYLQMNSLKPEDTAVYYCAASYLGFHMSYDYWGQGTQVNVSS	high polyreactivity
QVQLVESGGGLVQAGGSLRLSCAASGSTFGGYVMGWYRQAPGKERELVAAISGNGASTTYADSVKGRFTISRDNAKNTFYLQMNSLIPEDTAVFYCAAMYRKAHSDYDYWGQGSQVTVSS	low polyreactivity
QVQLVESGGGLVQAGGSLRLSCAASGSTFGGYVMGWYRQAPGKERELVAAISGNGASTTYADSVKGRFTISRDNAKNTVYLQLNSLKPEDTAVYYCAALYRKAHSDYDYWGQVTQVTVSS	low polyreactivity
QVQLVESGGGLVQAGGSLRLSCAASGSTFGHNVMGWYRQAPGKERELVAVISWRGGSTSYADSVKGRFTISRDNAKNTVYLQMNSLKPEDTAVYYCAKPALRYSSRYDSWGQGTQVTVSS	high polyreactivity
QVQLVESGGGLVQAGGSLRLSCAASGSTFGINAMGWSRQAPGKERELVAAISWRGGSTYYADSVKGRFTISRDNSKNTVYLQMNSLKPEDTAVYYCAADTFYWVGHYYVETYDYWGQGTQVTVSS	high polyreactivity
QVQLVESGGGLVQAGGSLRLSCAASGSTFGINAMGWYRQAPGKERELVAAIDASGGTTYFADSVKGRFTISRDNAKNTVYLQMNSLKPEDTAVYYCAADDNYYTFGYWGQGTQVTVSS	high polyreactivity
QVQLVESGGGLVQAGGSLRLSCAASGSTFGINTMGWYRQAPGKERELVASINRGGTTNYADSVKGRFTISRDNAKNTVYLQMNSLKPEDTAVYYCNARYYVTRLSRFRYGYWGQGTQVTVSS	high polyreactivity
QVQLVESGGGLVQAGGSLRLSCAASGSTFGIYARGGYRQAPGNERELVAAISWRGGRTYYADSVKGRFTISRDNAKNTVYLQMNSLKPEDTAVYYCAADLAVYYIFLALEFNYWGQGTQVTVSS	low polyreactivity
QVQLVESGGGLVQAGGSLRLSCAASGSTFGKYAMGWYRQAPGKERELVAAITWSGASTFYADSVKGRFTISRDNAKNTVYLQMNSLKPEDTAVYYCAARSYKSYYIFDYWGQGTQVTVSS	low polyreactivity
QVQLVESGGGLVQAGGSLRLSCAASGSTFGLNAMGWYRQAPGKERELVAAITRSDITNYADSVKGRFTISRDNAKNTVYLQMNSLKPEDTAVYYCNKTPDRHRRYFGYGYWGHGTQVTVSS	low polyreactivity
QVQLVESGGGLVQAGGSLRLSCAASGSTFGLNAMGWYRQAPGKERELVAAITSGGTYYADSVKGRFTISRDNAKNTVYLQMNSLKPEDTAVYYCAADGTWSIYGGLYYWGQGTQVTVSS	low polyreactivity
QVQLVESGGGLVQAGGSLRLSCAASGSTFGLYAMGRYRQAPGKERELVAAIRYSDGSTYYADSVKGRFTISRDNAKNTVYLQMNSLKPEDTAVYYCAAEIGTYFHVPTEYDYWGQGTQVTVSS	low polyreactivity
QVQLVESGGGLVQAGGSLRLSCAASGSTFGLYAMGWYRQAPGKERELVAAIRWSGGRTYYADSVKGRFTISRDNAKNTVYLQMNSLKPEDTAVYYCAARSLRSKNDYWGQGTQVTVSS	high polyreactivity
QVQLVESGGGLVQAGGSLRLSCAASGSTFGLYAMGWYRQAPGKERELVAAISYSGSSTYYADSVKGRFTISRDNAKNTVYLQMNSLKPEATAVYYCAARRSEHGYNYWGQGTQVSVSS	high polyreactivity
QVQLVESGGGLVQAGGSLRLSCAASGSTFGNAMGWYRQAPGKERELVAAISGSGSDTYYADSVKGRFTISRDNAKNTVYLQMNSLKPEDTAVYYCNTGWDPYGYDYWGQGTQVTVSS	low polyreactivity
QVQLVESGGGLVQAGGSLRLSCAASGSTFGPNAMGWYRQAPGKERELVAAIRSNGGRTYYADSVKGRFTISRDNAKNSVYLQMNSLKPEDTAVYYCAAPHYPYDTPYGYWGQGTQVTVSS	low polyreactivity
QVQLVESGGGLVQAGGSLRLSCAASGSTFGPYAMGWYRQAPGKERELVAAIRSDGGTYYADSVKGRFTISRDNAKNTVYLQMNSLKPEDTAVYYCNAVRGAAWRCYNSWQTYPRDYWGQGTQVTVSS	high polyreactivity
QVQLVESGGGLVQAGGSLRLSCAASGSTFGPYAMGWYRQAPGKERELVAAISRGGSTYYADSVKGRFTISRDNAKNTVYLQMNSLKPEDTAVYYCAARYVRVGYDYWGQGTQVTVSS	high polyreactivity
QVQLVESGGGLVQAGGSLRLSCAASGSTFGPYAMGWYRQAPGKERELVATITRNGGSTYYADSVKGRFTISRDNAKNTVYLQMNSLKPEDTAVYYCNAEGRWSSFTQRMDYWGQGTQVTVSW	low polyreactivity
QVQLVESGGGLVQAGGSLRLSCAASGSTFGPYDMGWYRQAPGQERDLVAAITRSGGRTYYADSVKGRFTFSRDNAKNTVYLQKNSLKPEDTAVYYCAAPPSEATSQRYKYNYWGQGTQVTVSS	high polyreactivity
QVQLVESGGGLVQAGGSLRLSCAASGSTFGPYVMGWYRQAPGKERELVAAISRIGGRTYYADSVKGRFTISRDNAKNTVYLQMNSLKPEDTAVYYCAAKVGLYGDDYWGQGTQVTVSS	high polyreactivity
QVQLVESGGGLVQAGGSLRLSCAASGSTFGRNALGWYRQAPGKERELVASISWGGGSTYYADSVKGRFTISRDNAKNTVYLQMNSLKPEDTAVYYSNARRFLWSQLSGSFSYDYWGQGTQVTVSS	high polyreactivity
